In one assay the target is HLA-A*02:02. The assay is described as follows: IEDB peptide-MHC binding, purified MHC/competitive/radioactivity; filed as Kd, often an IC50 or EC50 that approximates it; ≥ and ≤ were set here for values at or beyond the usual limits of such assays.
A further assay concerns the target HLA-A*02:03. The assay is described as above.
The target in the next assay is HLA-A*02:06. The description is as above.
In another assay the target is HLA-A*03:01. The assay is described as follows: IEDB peptide-MHC binding, purified MHC/direct/fluorescence; filed as Kd, often an IC50 or EC50 that approximates it; ≥ and ≤ were set here for values at or beyond the usual limits of such assays. Conditions: source organism: Listeria monocytogenes.
The target in the next assay is HLA-A*01:01. The assay is described as follows: IEDB peptide-MHC binding, purified MHC/competitive/radioactivity; filed as Kd, often an IC50 or EC50 that approximates it; ≥ and ≤ were set here for values at or beyond the usual limits of such assays.
The next assay deals with HLA-B*27:05. The assay is described as follows: IEDB peptide-MHC binding, purified MHC/direct/fluorescence; filed as Kd, often an IC50 or EC50 that approximates it; ≥ and ≤ were set here for values at or beyond the usual limits of such assays. The following applies: source organism: Mammarenavirus juninense.
The target of the next assay is HLA-A*02:01. The description is as above.
A further assay deals with HLA-A*69:01. Described as above. Conditions: source organism: Marburg virus - Musoke, Kenya, 1980.
Where [1] appears, read: source organism: Vaccinia virus WR.
The mark [2] stands for this setting: source organism: Mammarenavirus guanaritoense.
The mark [3] stands for this setting: source organism: SARS coronavirus Tor2.
The mark [4] stands for this setting: source organism: Dengue virus 1 Brazil/97-11/1997.

The values that follow come from the Immune Epitope Database (IEDB).

On to YTISSESLV, for which the equilibrium dissociation constant (Kd) with HLA-A*02:02 (setting [1]) worked out at 522 nM; with HLA-A*02:03 (setting [1]), 37.6 nM; with HLA-A*02:06 (setting [1]) it was 53.6 nM.

As for RVTDMAPFK, in the assay with HLA-A*03:01, the Kd came to 404 nM.

As for STSPTRTWKV, the dissociation constant Kd with HLA-A*02:02 (setting [1]) was 397 nM; in the assay with HLA-A*02:03 (setting [1]), 717 nM; in the assay with HLA-A*02:06 (setting [1]), 504 nM.

YMSNLFDIPL: the equilibrium dissociation constant (Kd) with HLA-A*02:02 (setting [1]) turned out to be 19.2 nM; with HLA-A*02:03 (setting [1]) it was 10.2 nM; with HLA-A*02:06 (setting [1]) it was 127 nM.

On to RQDYRRSINV, for which the Kd with HLA-A*02:02 (setting [1]) was 1010 nM; with HLA-A*02:03 (setting [1]), 375 nM; with HLA-A*02:06 (setting [1]), 2220 nM.

For the sequence QIYLSDSDNI, the Kd with HLA-A*02:02 (setting [1]) was 1240 nM; with HLA-A*02:03 (setting [1]) it was 19600 nM; in the assay with HLA-A*02:06 (setting [1]) it was 14900 nM.

Regarding AAVTLNRIKI, the Kd with HLA-A*02:02 (setting [1]) is 830 nM; with HLA-A*02:03 (setting [1]), 3490 nM; with HLA-A*02:06 (setting [1]), 1920 nM.

Take QTGIQRTVFF: the Kd with HLA-A*01:01 (source organism: Dengue virus 4 Philippines/H241/1956) was at least 70400 nM.

On to GLESIEQNLT, for which the equilibrium dissociation constant (Kd) is 7020 nM with HLA-A*02:02 (setting [1]), at least 61300 nM with HLA-A*02:03 (setting [1]) and at least 69800 nM with HLA-A*02:06 (setting [1]).

As for AVTLNRIKIA, the Kd with HLA-A*02:02 (setting [1]) was found to be 1720 nM; in the assay with HLA-A*02:03 (setting [1]), 1290 nM; in the assay with HLA-A*02:06 (setting [1]), 2290 nM.

In the case of QQFANVISKI, the Kd in the assay with HLA-A*02:02 (setting [1]) stood at 51.5 nM; with HLA-A*02:03 (setting [1]) it was 1.7 nM; with HLA-A*02:06 (setting [1]), 863 nM.

In the case of RRVAHSSLY, the dissociation constant Kd with HLA-B*27:05 was 170 nM.

For the sequence TLLNETAKVI, the equilibrium dissociation constant (Kd) turned out to be 2860 nM with HLA-A*02:02 (setting [1]), 2130 nM in the assay with HLA-A*02:03 (setting [1]) and 8550 nM with HLA-A*02:06 (setting [1]).

As to KIDKLTFQI, the Kd with HLA-A*02:02 (setting [1]) came out at 141 nM; with HLA-A*02:03 (setting [1]) it was 10600 nM; with HLA-A*02:06 (setting [1]), 41.9 nM.

Consider PTWLGAAITL, for which the Kd with HLA-A*02:02 (setting [1]) is 1360 nM; with HLA-A*02:03 (setting [1]) it was 1010 nM; with HLA-A*02:06 (setting [1]), 1770 nM.

For the sequence YCLDFLFDV, the Kd was 17300 nM with HLA-A*02:02 (setting [2]), at least 78100 nM in the assay with HLA-A*02:03 (setting [2]) and at least 77000 nM in the assay with HLA-A*02:06 (setting [2]).

For AMLAGTAVV, the Kd with HLA-A*02:01 (source organism: Mycobacterium tuberculosis) amounted to 5.9 nM.

Turning to ETNIGCAVNT, the Kd in the assay with HLA-A*02:02 (setting [1]) was at least 70000 nM; with HLA-A*02:03 (setting [1]), at least 37000 nM; in the assay with HLA-A*02:06 (setting [1]) it was at least 69800 nM.

In the case of TLNEDLLEI, the dissociation constant Kd with HLA-A*02:02 (setting [3]) came to 1.45 nM; with HLA-A*02:03 (setting [3]), 2.24 nM; in the assay with HLA-A*02:06 (setting [3]), 56.3 nM.

For RLRQDTEDI, the Kd with HLA-A*02:02 (setting [1]) stood at 230 nM; in the assay with HLA-A*02:03 (setting [1]), 387 nM; in the assay with HLA-A*02:06 (setting [1]) it was 4580 nM.

With ETDDDGNYPL, the results for the dissociation constant Kd with HLA-A*02:02 (setting [1]), in the assay with HLA-A*02:03 (setting [1]) and with HLA-A*02:06 (setting [1]) were 3590 nM, at least 28200 nM and 1160 nM, respectively.

Take VTTWEDVPYL: the Kd with HLA-A*01:01 (source organism: Dengue virus 3 Singapore/8120/1995) came out at 10200 nM.

As for NMWREILSNT, the dissociation constant Kd worked out at 6060 nM with HLA-A*02:02 (setting [1]), 56.1 nM with HLA-A*02:03 (setting [1]) and 12000 nM in the assay with HLA-A*02:06 (setting [1]).

LIGNEEFLDY: in the assay with HLA-A*01:01 (source organism: Dengue virus 3 Martinique/1243/1999), the Kd amounted to 1670 nM.

As for TSITQKGIIF, in the assay with HLA-A*01:01 (setting [4]), the Kd came out at 7350 nM.

Turning to SIISLFYTFA, the Kd came to 111 nM with HLA-A*02:02 (setting [1]), 28.1 nM with HLA-A*02:03 (setting [1]) and 93.6 nM with HLA-A*02:06 (setting [1]).

As to CTINVNSLA, the figures for the Kd with HLA-A*02:02 (setting [1]), in the assay with HLA-A*02:03 (setting [1]) and with HLA-A*02:06 (setting [1]) were 1040 nM, 1610 nM and 248 nM, respectively.

For the sequence HILHAYCGI, the Kd was determined as 123 nM with HLA-A*02:02 (setting [1]), 66.5 nM with HLA-A*02:03 (setting [1]) and 359 nM with HLA-A*02:06 (setting [1]).

Regarding WTTLLSLTF, in the assay with HLA-A*01:01 (setting [4]), the Kd was 11200 nM.

With ALLTGSYTI, the Kd came to 0.5 nM with HLA-A*02:01 (source organism: Marburg virus - Musoke, Kenya, 1980) and 6660 nM with HLA-A*69:01.

Take MLHNPTSET: the equilibrium dissociation constant (Kd) with HLA-A*02:02 (setting [1]) is 4210 nM; with HLA-A*02:03 (setting [1]), 184 nM; in the assay with HLA-A*02:06 (setting [1]) it was at least 77100 nM.

Turning to QMAGVEVRYI, the dissociation constant Kd in the assay with HLA-A*02:02 (setting [1]) came to 0.208 nM; with HLA-A*02:03 (setting [1]) it was 0.138 nM; with HLA-A*02:06 (setting [1]), 44.8 nM.

Consider VLTILYYGA, for which the dissociation constant Kd came out at 1.32 nM with HLA-A*02:02 (setting [1]), 17.5 nM with HLA-A*02:03 (setting [1]) and 6240 nM in the assay with HLA-A*02:06 (setting [1]).

On to KVEKYLPEVI, for which the equilibrium dissociation constant (Kd) was found to be 12100 nM with HLA-A*02:02 (setting [1]), 12400 nM with HLA-A*02:03 (setting [1]) and 734 nM with HLA-A*02:06 (setting [1]).

SMKGENVFI: the Kd amounted to 5.48 nM with HLA-A*02:02 (setting [1]), 18.9 nM with HLA-A*02:03 (setting [1]) and 13700 nM with HLA-A*02:06 (setting [1]).

For the sequence FIDRGSIKI, the figures for the dissociation constant Kd with HLA-A*02:02 (setting [1]), in the assay with HLA-A*02:03 (setting [1]) and with HLA-A*02:06 (setting [1]) were 9720 nM, 12200 nM and 4030 nM, respectively.
